Measured values published in patent US20250026813A1 (published 2025).
Where “and” joins values, the source holds several entries; their conditions need not be identical. Identical values can stand only once.

Tests used:
[1] = biological target: T1, Receptor binding domain (Neil King, University of Washington) (SARS-CoV-2, UniProt P0DTC2 328-531); test: SPR (Biacore 8K), antibody captured by anti-hFc, RBD as analyte
[2] = biological target: T1, Receptor binding domain (Neil King, …)
[3] = biological target: SARS-CoV-2 spike protein on live virus SARS-CoV-2 Victoria/01/2020 (SARS-CoV-2, UniProt P0DTC2 14-1273); test: cell-based or functional assay
[4] = biological target: RBD domain of the SARS-CoV-2 spike protein (Acro Biosystems SPD-C52H3), His tag (SARS-CoV-2, UniProt P0DTC2 319-537)
[5] = biological target: SARS-CoV-2 spike protein receptor binding domain (isolated RBD) (SARS-CoV-2, UniProt P0DTC2 319-541); test: SPR (Biacore 8K), IgG1 captured via anti-hFc, RBD as analyte, 1:1 fit
[6] = biological target: SARS-CoV-2 spike protein receptor binding domain (RBD) (SARS-CoV-2, UniProt P0DTC2 319-541); test: HT-SPR (Carterra LSA); IgG captured by anti-human Fc, RBD as analyte, 1:1 fit

B1: IMPI-013 (antibody, V domains shown)
VH: EVQLVESGGGLVQPGRSLRLSCAASGFTFDDYAMHWVRQTPGKGLEWVSGISWNSGSIGYADSVKGRFTISRDNAKNSLYLQMNSLRAEDTALYYCTKDLGLGIGFYYGLDVWGQGTTVTVSS
VL: AIQMTQSPSSLSTSVGDRVTITCRASQGIRNDLGWYQLKPGKAPKLLIYDASTLQSGVPSRFSGSGSGTDFTLTISSLEPEDLATYYCLHHYTYPWTFGHGTKVELK
notes: also called IMP-013
B1: no binding (tested: up to 100 nM analyte) [1].

B2: IMPI-059 (antibody, V domains shown)
VH: EVQLVESGGGLIQPGGSLRLSCAASGFTVSSIYMSWVRQAPGKGLEWVSIIYSRGSTDYADSVKGRFTISRDISKNTLYLQMNSLRAEDTAVYYCARDGTMVRGVHAFDIWGQGTMVTVSS
VL: DIQMTQSPPSLSASIGDRVTITCQASQDISNYLNWYQQKPGKAPKLLIYDASNLETGVPSRFSGSGSGTDFTLTISNLQPEDIVTYYCQQYDNLPSSFGQGTKLEIK
In the case of B2, the Kd [2] is reported as less than 1 nM and the “IC50, live virus foci (plaque) reduction neutralisation assay on Vero cells” value [3] is reported as 0.026 nM.

B3: IMPI-004 (antibody, V domains shown)
VH: QVQLVESGGGVVQPGRSLRLSCAASGFTFSSYGMHWVRQAPGKGLEWVAVIWYDGGNKYYADSVKGRFTISRDNSKNTLYLQMNSLRAEDTAVYYCARVNVLMGYGMDVWGQGTTVTVSS
VL: EIVLTQSPGTLSLSPGDKATLSCRASQSIISSFLAWYQQKPGQAPRLLIYGASSRATGIPDRFSGSGSGTDFTLTISRLEPEDFAVYYCQQYGSSLTFGGGTKVEIK
With B3 the “IC50, live virus foci (plaque) reduction neutralisation assay on Vero cells” value [3] was 13 ng/ml and 86 pM.

B4: IMPI-002 (antibody, V domains shown)
VH: EVQLVESGGGLIQPGGSLRLSCAASGVTVSSNYMSWVRQAPGKGLEGVSVIYSGGSTYYADSVKGRFTISRDNSKNTLYLQMNSLRAEDTAVYYCARDTVVYGMDVWGQGTTVTVSS
VL: DIQLTQSPSFLSASVGDRVTITCWASQGISSYLAWYQQKPGKAPKLLIYAASTLQSGVPSRFSGSGSGTEFTLTISSLQPEDFATYYCQQLNSYPLTFGGGTKVEIK
For B4, the “HTRF deltaF” value [4] was 172 deltaF.

B5: IMPI-052 (antibody, V domains shown)
VH: EVQLVESGGGLIQPGGSLRLSCAASGVTVSSNYMNWVRQAPGKGLEGVSVIYSGGTTYYADSVKGRFTISRDNSKNTLYLQMNSLRAEDTAVYYCARDTVVYGMDVWGQGTTVTVSS
VL: DIQLTQSPSFLSASVGDRVTITCWASQGISSYLAWYQQKPGKAPKLLIYTASTLQSGVPSRFSGSGSGTEFTLTISSLQPEDFATYYCQQLNSYPLTFGGGTKVEIK
B5 gave a Kd [5] of 13.2 nM.

B6: IMPI-052 (antibody, V domains shown)
VH: EVQLVESGGGLIQPGGSLRLSCAASGVTVSSNYMNWVRQAPGKGLEGVSVIYSGGTTYYADSVKGRFTISRDNSKNTLYLQMNSLRAEDTAVYYCARDTVVYGMDVWGQGTTVTVSS
VL: DIQLTQSPSFLSASVGDRVTITCWASQGISSYLAWYQQKPGKAPKLLIYTASTLQSGVPSRFSGSGSGTEFTLTISSLQPEDFATYYCQQLNSYPLTFGGGTKVEIK
For B6, the “HTRF deltaF” value [4] was 229 deltaF.

B7: IMPI-052 (antibody, V domains shown)
VH: EVQLVESGGGLIQPGGSLRLSCAASGVTVSSNYMNWVRQAPGKGLEGVSVIYSGGTTYYADSVKGRFTISRDNSKNTLYLQMNSLRAEDTAVYYCARDTVVYGMDVWGQGTTVTVSS
VL: DIQLTQSPSFLSASVGDRVTITCWASQGISSYLAWYQQKPGKAPKLLIYTASTLQSGVPSRFSGSGSGTEFTLTISSLQPEDFATYYCQQLNSYPLTFGGGTKVEIK
In the case of B7, the Kd [6] is reported as 24.1 nM.

B8: IMPI-063 (antibody, V domains shown)
VH: EVQLVESGGGVVRPGGSLRLSCAASGFTFDDYGMSWVRQAPGKGLEWVSGIYWNGGSTGYADSVKGRFTISRDNAKNSLYLQMNSLRAEDMALYYCARGVGATDYWGQGTLVTVSS
VL: EIVLTQSPGTLSLSSGERATLACRASESVRGSFLAWYQQKPGQAPRLLIYGASRRATGIPDRFSGSGSGTDFTLTISRLEPEDFAVYYCQQYGNSPMCSFGQGTKLEIK
B8: no binding (tested: up to 100 nM analyte) [1].
